Laboratory results: patent US20090075340A1 (Novo Nordisk, published 2009)

B1: murine IgG1 monoclonal antibody 1-26F117-A3 (antibody, V domains shown)
VH: EVQLQQSGPELVKPGASVKISCKASDYSFTGYFMNWVMQSQEKSLEWIGRINPFNGDAFYNQKFKGKATLTVDKSSNTAHMELRSLTSEDSAVYYCARLDYRGYFFDYWGQGTTLTVSS
VL: DIVMTQSQKFMSTTVGDRVSITCKASQSVGSAVGWYQQKPGQSPKLLIYSASTRYTGVPDRFTGSGSGTDFTLTITNMQSDDLADYFCHQYSRYPLSFGSGTKLEMKR
B2: murine IgG1 monoclonal antibody 1-26F117-A4 (antibody, V domains shown)
VH: QVQLKESGPGLVAPSQSLSITCTVSGFSLTDYGVSWVRQPPGKGLEWLGLIWGDGRTNYHSALISRLSISKDNSKSQVFLKLNSLQIDDTATYYCARRGAMDYWGQGTSVTVSS
VL: B1 VL

Biological target: KIR2DL1 expressed on YTS-2DL1 NK cells (human, UniProt P43626 22-348)
Test: cell-based or functional assay

Sequence of KIR2DL1 expressed on YTS-2DL1 NK cells (P43626 other isoform, or with tags, fused parts or gaps limits assumed): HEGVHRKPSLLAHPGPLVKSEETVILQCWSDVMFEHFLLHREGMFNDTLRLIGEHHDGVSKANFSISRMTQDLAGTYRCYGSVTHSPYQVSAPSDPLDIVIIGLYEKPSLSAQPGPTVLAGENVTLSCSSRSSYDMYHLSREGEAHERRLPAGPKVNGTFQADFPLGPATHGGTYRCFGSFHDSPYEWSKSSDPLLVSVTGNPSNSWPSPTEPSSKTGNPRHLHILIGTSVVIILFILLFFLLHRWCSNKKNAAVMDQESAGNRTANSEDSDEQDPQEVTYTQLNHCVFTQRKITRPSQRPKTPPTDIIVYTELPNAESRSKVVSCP

Binder | killing of LCL 721.221-Cw4 cells by YTS-2DL1, fold over killing in the absence of mAb's [fold]
B1 | 3.7
B2 | ~2
